# Source: patent US20230167501
# T1: PEG10 gag
# T1 chain: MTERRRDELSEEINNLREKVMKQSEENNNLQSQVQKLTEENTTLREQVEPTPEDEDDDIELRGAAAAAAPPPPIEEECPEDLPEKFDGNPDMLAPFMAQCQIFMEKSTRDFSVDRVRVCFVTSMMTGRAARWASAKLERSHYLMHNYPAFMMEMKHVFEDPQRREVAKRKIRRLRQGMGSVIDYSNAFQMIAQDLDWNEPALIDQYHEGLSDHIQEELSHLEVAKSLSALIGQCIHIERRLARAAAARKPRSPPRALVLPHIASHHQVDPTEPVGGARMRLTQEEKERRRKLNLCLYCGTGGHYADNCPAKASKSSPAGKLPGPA
# Target: T1, PEG10 gag
protein,measurement,value
PEG10 gag-pol (protein) MTERRRDELSEEINNLREKVMKQSEENNNLQSQVQKLTEENTTLREQVEPTPEDEDDDIELRGAAAAAAPPPPIEEECPEDLPEKFDGNPDMLAPFMAQCQIFMEKSTRDFSVDRVRVCFVTSMMTGRAARWASAKLERSHYLMHNYPAFMMEMKHVFEDPQRREVAKRKIRRLRQGMGSVIDYSNAFQMIAQDLDWNEPALIDQYHEGLSDHIQEELSHLEVAKSLSALIGQCIHIERRLARAAAARKPRSPPRALVLPHIASHHQVDPTEPVGGARMRLTQEEKERRRKLNLCLYCGTGGHYADNCPAKASKSSPAGKLPGPAVEGPSATGPEIIRSPQDDASSPHLQVMLQIHLPGRHTLFVRAMIDSGASGNFIDHEYVAQNGIPLRIKDWPILVEAIDGRPIASGPVVHETHDLIVDLGDHREVLSFDVTQSPFFPVVLGVRWLSTHDPNITWSTRSIVFDSEYCRYHCRMYSPIPPSLPPPAPQPPLYYPVDGYRVYQPVRYYYVQNVYTPVDEHVYPDHRLVDPHIEMIPGAHSIPSGHVYSLSEPEMAALRDFVARNVKDGLITPTIAPNGAQVLQVKRGWKLQVSYDCRAPNNFTIQNQYPRLSIPNLEDQAHLATYTEFVPQIPGYQTYPTYAAYPTYPVGFAWYPVGRDGQGRSLYVPVMITWNPHWYRQPPVPQYPPPQPPPPPPPPPPPPSYSTL,presence of HA-tagged cleavage products by western blot after co-transfection,PEG10 gag-pol was capable of cleaving PEG10 gag in trans
